Source: patent US20100305031A1 (Daiichi Sankyo, published 2010)
Bridges are numbered along the chain shown (N, C = ends). Where no end group is shown, it is not given here.

Target: human type recombinant neutral endopeptidase (hNEP, manufactured by R&D Systems, Inc., U.S.A.) (human, UniProt P08473 52-750)
Test: cell-based or functional assay

human type recombinant neutral endopeptidase (hNEP, manufactured by R&D Systems, Inc., U.S.A.), sequence (P08473 52-750 limits assumed): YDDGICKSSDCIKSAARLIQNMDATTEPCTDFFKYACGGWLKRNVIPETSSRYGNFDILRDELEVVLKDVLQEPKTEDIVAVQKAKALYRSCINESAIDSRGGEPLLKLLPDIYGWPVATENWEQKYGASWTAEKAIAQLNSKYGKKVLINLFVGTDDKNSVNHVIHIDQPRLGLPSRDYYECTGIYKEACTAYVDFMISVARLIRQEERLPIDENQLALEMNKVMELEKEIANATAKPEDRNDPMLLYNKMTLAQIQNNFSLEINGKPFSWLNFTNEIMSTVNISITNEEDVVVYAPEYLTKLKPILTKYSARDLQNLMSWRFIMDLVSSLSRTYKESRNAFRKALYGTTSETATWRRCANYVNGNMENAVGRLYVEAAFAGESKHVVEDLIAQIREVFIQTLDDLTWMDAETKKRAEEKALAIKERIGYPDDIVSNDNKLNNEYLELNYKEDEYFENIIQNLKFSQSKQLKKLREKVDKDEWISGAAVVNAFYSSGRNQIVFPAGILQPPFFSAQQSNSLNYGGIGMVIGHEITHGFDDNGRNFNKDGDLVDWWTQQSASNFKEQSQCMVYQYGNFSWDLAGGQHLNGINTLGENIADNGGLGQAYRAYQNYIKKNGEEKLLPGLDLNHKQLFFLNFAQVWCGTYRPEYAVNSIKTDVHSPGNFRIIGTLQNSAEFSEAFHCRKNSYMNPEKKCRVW

Binder | Residual Rate (%) of the unchanged peptide after 1 hour at 37° C. with hNEP (HPLC) [%]
GLSKGCFGLKLDRIGSMSGLGC (disulfide 6-22) [Native CNP-22] | 16.7
RPQLKAPPKKSEKRQQVCFGLKLDRIGSMSGLGC (disulfide 18-34 (inferred)) [Chimeric CNP (A)] | 84.3
CFGLKLDRIGSMSGLGCVQQRKESKKPPAKLQPR (disulfide 1-17 (inferred)) [Chimeric CNP (B)] | 83.8
